Test results taken from patent US20230407373A1 (priority 2020, published 2023).

System: HCoV-OC43 gRNA and sgRNA
Format: binding
Settings: for target (unweighted spectral count, OC43 Probe II) / background (unweighted spectral count, no-probe control): type n_48_v, 48 hpi; for target (unweighted spectral count, OC43 Probe II): OC43 Probe II capture on infected cells; for background (unweighted spectral count, no-probe control): no-probe control on infected cells

Molecule	target (unweighted spectral count, OC43 Probe II)	background (unweighted spectral count, no-probe control)	target (unweighted spectral count) (OC43 Probe II, 12 hpi (type n_12_v), infected cells, tested against no-probe control)
NOP56 (protein, UniProt O00567 1-594, looked up) Nucleolar protein 56: MVLLHVLFEHAVGYALLALKEVEEISLLQPQVEESVLNLGKFHSIVRLVAFCPFASSQVALENANAVSEGVVHEDLRLLLETHLPSKKKKVLLGVGDPKIGAAIQEELGYNCQTGGVIAEILRGVRLHFHNLVKGLTDLSACKAQLGLGHSYSRAKVKFNVNRVDNMIIQSISLLDQLDKDINTFSMRVREWYGYHFPELVKIINDNATYCRLAQFIGNRRELNEDKLEKLEELTMDGAKAKAILDASRSSMGMDISAIDLINIESFSSRVVSLSEYRQSLHTYLRSKMSQVAPSLSALIGEAVGARLIAHAGSLTNLAKYPASTVQILGAEKALFRALKTRGNTPKYGLIFHSTFIGRAAAKNKGRISRYLANKCSIASRIDCFSEVPTSVFGEKLREQVEERLSFYETGEIPRKNLDVMKEAMVQAEEAAAEITRKLEKQEKKRLKKEKKRLAALALASSENSSSTPEECEEMSEKPKKKKKQKPQEVPQENGMEDPSISFSKPKKKKSFSKEELMSSDLEETAGSTSIPKRKKSTPKEETVNDPEEAGHRSGSKKKRKFSKEEPVSSGPEEAVGKSSSKKKKKFHKASQED	5	1	–
GANAB (protein, UniProt Q14697 29-944, looked up) Neutral alpha-glucosidase AB: ITLAVDRSNFKTCEESSFCKRQRSIRPGLSPYRALLDSLQLGPDSLTVHLIHEVTKVLLVLELQGLQKNMTRFRIDELEPRRPRYRVPDVLVADPPIARLSVSGRDENSVELTMAEGPYKIILTARPFRLDLLEDRSLLLSVNARGLLEFEHQRAPRVSQGSKDPAEGDGAQPEETPRDGDKPEETQGKAEKDEPGAWEETFKTHSDSKPYGPMSVGLDFSLPGMEHVYGIPEHADNLRLKVTEGGEPYRLYNLDVFQYELYNPMALYGSVPVLLAHNPHRDLGIFWLNAAETWVDISSNTAGKTLFGKMMDYLQGSGETPQTDVRWMSETGIIDVFLLLGPSISDVFRQYASLTGTQALPPLFSLGYHQSRWNYRDEADVLEVDQGFDDHNLPCDVIWLDIEHADGKRYFTWDPSRFPQPRTMLERLASKRRKLVAIVDPHIKVDSGYRVHEELRNLGLYVKTRDGSDYEGWCWPGSAGYPDFTNPTMRAWWANMFSYDNYEGSAPNLFVWNDMNEPSVFNGPEVTMLKDAQHYGGWEHRDVHNIYGLYVHMATADGLRQRSGGMERPFVLARAFFAGSQRFGAVWTGDNTAEWDHLKISIPMCLSLGLVGLSFCGADVGGFFKNPEPELLVRWYQMGAYQPFFRAHAHLDTGRREPWLLPSQHNDIIRDALGQRYSLLPFWYTLLYQAHREGIPVMRPLWVQYPQDVTTFNIDDQYLLGDALLVHPVSDSGAHGVQVYLPGQGEVWYDIQSYQKHHGPQTLYLPVTLSSIPVFQRGGTIVPRWMRVRRSSECMKDDPITLFVALSPQGTAQGELFLDDGHTFNYQTRQEFLLRRFSFSGNTLVSSSADPEGHFETPIWIERVVIIGAGKPAAVVLQTKGSPESRLSFQHDPETSVLVLRKPGINVASDWSIHLR	5	1	–
HIST1H1D (protein, UniProt P16402 2-221, looked up) Histone H1.3: SETAPLAPTIPAPAEKTPVKKKAKKAGATAGKRKASGPPVSELITKAVAASKERSGVSLAALKKALAAAGYDVEKNNSRIKLGLKSLVSKGTLVQTKGTGASGSFKLNKKAASGEGKPKAKKAGAAKPRKPAGAAKKPKKVAGAATPKKSIKKTPKKVKKPATAAGTKKVAKSAKKVKTPQPKKAAKSPAKAKAPKPKAAKPKSGKPKVTKAKKAAPKKK	–	–	5
ZNF622 (protein, UniProt Q969S3 2-477, looked up) Cytoplasmic 60S subunit …: ATYTCITCRVAFRDADMQRAHYKTDWHRYNLRRKVASMAPVTAEGFQERVRAQRAVAEEESKGSATYCTVCSKKFASFNAYENHLKSRRHVELEKKAVQAVNRKVEMMNEKNLEKGLGVDSVDKDAMNAAIQQAIKAQPSMSPKKAPPAPAKEARNVVAVGTGGRGTHDRDPSEKPPRLQWFEQQAKKLAKQQEEDSEEEEEDLDGDDWEDIDSDEELECEDTEAMDDVVEQDAEEEEAEEGPPLGAIPITDCLFCSHHSSSLMKNVAHMTKDHSFFIPDIEYLSDIKGLIKYLGEKVGVGKICLWCNEKGKSFYSTEAVQAHMNDKSHCKLFTDGDAALEFADFYDFRSSYPDHKEGEDPNKAEELPSEKNLEYDDETMELILPSGARVGHRSLMRYYKQRFGLSRAVAVAKNRKAVGRVLQQYRALGWTGSTGAALMRERDMQYVQRMKSKWMLKTGMKNNATKQMHFRVQVRF	5	1	–
PATLI (protein, UniProt Q86TB9 1-770, looked up) Protein PAT1 homolog 1: MFRYESLEDCPLDEDEDAFQGLGEEDEEIDQFNDDTFGSGAVDDDWQEAHERLAELEEKLPVAVNEQTGNGERDEMDLLGDHEENLAERLSKMVIENELEDPAIMRAVQTRPVLQPQPGSLNSSIWDGSEVLRRIRGPLLAQEMPTVSVLEYALPQRPPQGPEDDRDLSERALPRRSTSPIIGSPPVRAVPIGTPPKQMAVPSFTQQILCPKPVHVRPPMPPRYPAPYGERMSPNQLCSVPNSSLLGHPFPPSVPPVLSPLQRAQLLGGAQLQPGRMSPSQFARVPGFVGSPLAAMNPKLLQGRVGQMLPPAPGFRAFFSAPPSATPPPQQHPPGPGPHLQNLRSQAPMFRPDTTHLHPQHRRLLHQRQQQNRSQHRNLNGAGDRGSHRSSHQDHLRKDPYANLMLQREKDWVSKIQMMQLQSTDPYLDDFYYQNYFEKLEKLSAAEEIQGDGPKKERTKLITPQVAKLEHAYKPVQFEGSLGKLTVSSVNNPRKMIDAVVTSRSEDDETKEKQVRDKRRKTLVIIEKTYSLLLDVEDYERRYLLSLEEERPALMDDRKHKICSMYDNLRGKLPGQERPSDDHFVQIMCIRKGKRMVARILPFLSTEQAADILMTTARNLPFLIKKDAQDEVLPCLLSPFSLLLYHLPSVSITSLLRQLMNLPQSAATPALSNPHLTAVLQNKFGLSLLLILLSRGEDLQSSDPATESTQNNQWTEVMFMATRELLRIPQAALAKPISIPTNLVSLFSRYVDRQKLNLLETKLQLVQGIR	5	1	–
EEF1A2 (protein, UniProt Q05639 2-463, looked up) Elongation factor 1-alpha 2: GKEKTHINIVVIGHVDSGKSTTTGHLIYKCGGIDKRTIEKFEKEAAEMGKGSFKYAWVLDKLKAERERGITIDISLWKFETTKYYITIIDAPGHRDFIKNMITGTSQADCAVLIVAAGVGEFEAGISKNGQTREHALLAYTLGVKQLIVGVNKMDSTEPAYSEKRYDEIVKEVSAYIKKIGYNPATVPFVPISGWHGDNMLEPSPNMPWFKGWKVERKEGNASGVSLLEALDTILPPTRPTDKPLRLPLQDVYKIGGIGTVPVGRVETGILRPGMVVTFAPVNITTEVKSVEMHHEALSEALPGDNVGFNVKNVSVKDIRRGNVCGDSKSDPPQEAAQFTSQVIILNHPGQISAGYSPVIDCHTAHIACKFAELKEKIDRRSGKKLEDNPKSLKSGDAAIVEMVPGKPMCVESFSQYPPLGRFAVRDMRQTVAVGVIKNVEKKSGGAGKVTKSAQKAQKAGK	5	1	–
NFXL1 (protein, UniProt Q6ZNB6 1-911, looked up) NF-X1-type zinc finger …: MEASWRQVAGGRGRSRGRATAAPSGNGVHLRGAGGGREKGSVGAVPSGTSPGGVATTAAAGSRHSPAGSQALQTTAASELMSQKKFEEIKKANQAAARKLVEEQFSSSSEEGDEDFEGKQGKILANTFITYTTQTDGDTRELERTKQYVNEAFQAGAMTCLICIASVKRNQAVWSCSGCFCIFHMPCIQKWAKDSQFLVSSVTDDDFGKKDCPWPCPKCRFEYKRSETPSRYYCYCGKVEDPPLDPWLVPHSCGQVCEREFKPPCGHKCLLLCHPGPCPPCPKMVTTTCYCKKAKPIPRRCSAKEWSCQLPCGQKLLCGQHKCENPCHAGSCQPCPRVSRQKCVCGKKVAERSCASPLWHCDQVCGKTLPCGNHTCEQVCHVGACGECPRSGKRFCPCQKSKFSLPCTEDVPTCGDSCDKVLECGIHRCSQRCHRGPCETCRQEVEKHCRCGKHTKRMPCHKPYLCETKCVKMRDCQKHQCRRKCCPGNCPPCDQNCGRTLGCRNHKCPSVCHRGSCYPCPETVDVKCNCGNTKVTVPCGRERTTRPPKCKEQCSRPPTCHHTSQEKHRCHFGSCPPCHQPCQKVLEKCGHLCPAPCHDQALIKQTGRHQPTGPWEQPSEPAFIQTALPCPPCQVPIPMECLGKHEVSPLPCHAVGPYSCKRVCGRILDCQNHTCMKECHKVTKTDGCTGKNKAGPECLHCEEGCSKSRPLGCLHPCILRCHPGECPPCVQMLRIKCHCKITSLYVECRKITTADVNEKNLLSCCKNQCPKELPCGHRCKEMCHPGECPFNCNQKVKLRCPCKRIKKELQCNKVRENQVSIECDTTCKEMKRKASEIKEAEAKAALEEEKRRQQAELEAFENRLKGRRKKNRKRDEVAVELSLWQKHKYYLISVCGVVVVVFAWYITHDVN	12	3	–
VIL1 (protein, UniProt P09327 2-827, looked up) Villin-1: TKLSAQVKGSLNITTPGLQIWRIEAMQMVPVPSSTFGSFFDGDCYIILAIHKTASSLSYDIHYWIGQDSSLDEQGAAAIYTTQMDDFLKGRAVQHREVQGNESEAFRGYFKQGLVIRKGGVASGMKHVETNSYDVQRLLHVKGKRNVVAGEVEMSWKSFNRGDVFLLDLGKLIIQWNGPESTRMERLRGMTLAKEIRDQERGGRTYVGVVDGENELASPKLMEVMNHVLGKRRELKAAVPDTVVEPALKAALKLYHVSDSEGNLVVREVATRPLTQDLLSHEDCYILDQGGLKIYVWKGKKANEQEKKGAMSHALNFIKAKQYPPSTQVEVQNDGAESAVFQQLFQKWTASNRTSGLGKTHTVGSVAKVEQVKFDATSMHVKPQVAAQQKMVDDGSGEVQVWRIENLELVPVDSKWLGHFYGGDCYLLLYTYLIGEKQHYLLYVWQGSQASQDEITASAYQAVILDQKYNGEPVQIRVPMGKEPPHLMSIFKGRMVVYQGGTSRTNNLETGPSTRLFQVQGTGANNTKAFEVPARANFLNSNDVFVLKTQSCCYLWCGKGCSGDEREMAKMVADTISRTEKQVVVEGQEPANFWMALGGKAPYANTKRLQEENLVITPRLFECSNKTGRFLATEIPDFNQDDLEEDDVFLLDVWDQVFFWIGKHANEEEKKAAATTAQEYLKTHPSGRDPETPIIVVKQGHEPPTFTGWFLAWDPFKWSNTKSYEDLKAELGNSRDWSQITAEVTSPKVDVFNANSNLSSGPLPIFPLEQLVNKPVEELPEGVDPSRKEEHLSIEDFTQAFGMTPAAFSALPRWKQQNLKKEKGLF	5	1	–
